Test [1] concerns the target UvrA. Put plainly: BIACORE sensor chip (NTA), β domain immobilised, UvrA in solution, in the absence of ATP. (In SPR one partner is held on a chip, and binding of the other changes the refractive index at the surface.)
For test [2], the target named is UvrA. Kind of test: BIACORE sensor chip (NTA), β domain immobilised, UvrA in solution, in the presence of ATP.

Among the data in US6939949B2 are Kd values, retold here.

For the substance “TRCF-β (β domain of Thermus thermophilus HB8 transcription-repair coupling factor), His-tagged”, the Kd worked out at 1300 nM in the test with UvrA [1] and 500 nM with UvrA [2].

As a reminder, the Kd is a measure of binding affinity in units of concentration.
